Assay results taken from the PETadex activity labels (doi:10.1002/cbic.202200516).

B1: unnamed (protein)
chain: MDGVLWRVRTAALMAALLALAAWALVWASPSVEAQSNPYQRGPNPTRSALTADGPFSVATYTVSRLSVSGFGGGVIYYPTGTSLTFGGIAMSPGYTADASSLAWLGRRLASHGFVVLVINTNSRFDYPDSRASQLSAALNYLRTSSPSAVRARLDANRLAVAGHSMGGGGTLRIAEQNPSLKAAVPLTPWHTDKTFNTSVPVLIVGAEADTVAPVSQHAIPFYQNLPSTTPKVYVELDNASHFAPNSNNAAISVYTISWMKLWVDNDTRYRQFLCNVNDPALSDFRTNNRHCQ
B2: unnamed (protein)
chain: MAVMTPRRERSSLLSRALQVTAAAATALVTAVSLAAPAHAANPYERGPNPTDALLEASSGPFSVSEENVSRLSASGFGGGTIYYPRENNTYGAVAISPGYTGTEASIAWLGERIASHGFVVITIDTITTLDQPDSRAEQLNAALNHMINRASSTVRSRIDSSRLAVMGHSMGGGGTLRLASQRPDLKAAIPLTPWHLNKNWSSVTVPTLIIGADLDTIAPVATHAKPFYNSLPSSISKAYLELDGATHFAPNIPNKIIGKYSVAWLKRFVDNDTRYTQFLCPGPRDGLFGEVEEYRSTCPF
B3: unnamed (protein)
chain: MNFPRASRLMQAAVLGGLMAVSAAATAQTNPYARGPNPTAASLEASAGPFTVRSFTVSRPSGYGAGTVYYPTNAGGTVGAIAIVPGYTARQSSIKWWGPRLASHGFVVITIDTNSTLDQPSSRSSQQMAALRQVASLNGTSSSPIYGKVDTARMGVMGWSMGGGGSLISAANNPSLKAAAPQAPWDSSTNFSSVTVPTLIFACENDSIAPVNSSALPIYDSMSRNAKQFLEINGGSHSCANSGNSNQALIGKKGVAWMKRFMDNDTRYSTFACENPNSTRVSDFRTANCS

Experiments:
Conditions in all cases: 50 °C
BHET = substrate: BHET
MHET = substrate: MHET
PET-02mer = substrate: PET-02mer

Row | Protein | Km (BHET) [µM] | kcat (BHET) [s⁻¹] | kcat/Km (BHET) [M⁻¹ s⁻¹] | Km (MHET) [µM] | kcat (MHET) [s⁻¹] | kcat/Km (MHET) [M⁻¹ s⁻¹] | Km (PET-02mer) [µM] | kcat (PET-02mer) [s⁻¹] | kcat/Km (PET-02mer) [M⁻¹ s⁻¹] | Km (BHET; part of the chain shown) [µM] | kcat (BHET; part of the chain shown) [s⁻¹] | kcat/Km (BHET; part of the chain shown) [M⁻¹ s⁻¹] | Km (PET-02mer; part of the chain shown) [µM] | kcat (PET-02mer; part of the chain shown) [s⁻¹] | kcat/Km (PET-02mer; part of the chain shown) [M⁻¹ s⁻¹]
1 | B1 | 960 | 6.2 | 6460 | 1200 | 0.048 | 40 | 790 | 300 | 380000 |  |  |  |  |  | 
2 | B2 | 230 | 1.1 | 4780 | 3800 | 0.043 | 11.3 | 170 | 62 | 365000 |  |  |  |  |  | 
3 | B3 |  |  |  |  |  |  |  |  |  | 1400 | 4.8 | 3430 | 58 | 23 | 397000
